# Source: patent US20190284262A1 (Memorial Sloan Kettering, published 2019)
# B1: (FoxP2)_#6 (scFv)
# scFv (VL-linker-VH-His/HA tag): QSVVTQPPSVSGAPGQGVTIPCTGSSSNIGAGYDVHWYQQLPGTAPKLLIYGNNNRPSGVPDRFSGSRSGSSASLAITGLQAEDEADYYCQSYDSSLSDVVFGGGTKLTVLGSRGGGGSGGGGSGGGGSLEMAEVQLVQSGAEVKKPGESLKISCKGSGYNFASEWIGWVRQMPGKGLEWMGLIYPAESEITYSPSFQGQVTISVDKSISTAYLQWSSLKASDTAMYYCARAWDANYIYMDIWGQGTLVTVSSTSGQAGQHHHHHHGAYPYDVPDYAS
# notes: also called EXT019-6; EXT019-06 scFv phage clone
# B2: (FoxP2)_#9 (scFv)
# scFv (VL-linker-VH-His/HA tag): SYELTQPPSVSVAPGKTARITCGGNNIGSKSVHWYQQKPGQAPVLVIYYDSDRPSGIPERFSGSNSGNTATLTISRVEAGDEADYYCQVWDSSSDHWVFGGGTKLTVLGSRGGGGSGGGGSGGGGSLEMAQVQLVQSGGGLVQPGGSLKLSCAASGFAFSGSSLHWVRQASGKGLEWVGRITSKAYNYATLYAASVKGRFTISRDDSKNTAYLQMNSLQTEDTAVYYCTQTGDSSAYWGQGTLVTVSSTSGQAGQHHHHHHGAYPYDVPDYAS
# notes: also called EXT019-9; EXT019-09 scFv phage clone
# B3: (FoxP2)_#20 (scFv)
# scFv (VL-linker-VH-His/HA tag): SYVLTQPPSVSVAPGKTARITCGGNNIGSKSVHWYQQKPGQAPVLVIYYDSDRPSGIPERFSGSNSGNTATLTISRVEAGDEADYYCQVWDSSSDRVVFGGGTKLTVLGSRGGGGSGGGGSGGGGSLEMAQVQLQQSGPGLVKPSQTLSLTCAISGDSISSKSAAWNWIRQSPSRGLEWLGRTYYRSKWYYEYAPSVRSRITINRDTSKNQFSLQLNSVTPEDTAVYYCARSTGTFDYWGQGTLVTVSSTSGQAGQHHHHHHGAYPYDVPDYAS
# notes: also called EXT019-20 scFv phage clone
# B4: EXT017-9 scFv phage clone (scFv)
# scFv: QSALTQPASASGSPGQSVTISCTGTSSDVGGYNYVSWYQQHPGKAPKLMIYEVSKRPSGVPDRFSGSKSGNTASLTVSGLQAEDEADYYCSSYAGSNNVVFGGGTKLTVLGSRGGGGSGGGGSGGGGSLEMAEVQLVQSGAEVKKPGASVKISCKASRYTFTNYYIHWVRQAPGQGLEWMGIINPSGGSTTYPQNFQGRLTMTRDTSTSTVYMELSSLRSEDTAMYYCARGWSGYDPGDFWGQGTLVTVSSTSGQAGQHHHHHHGAYPYDVPDYAS
# notes: also called phage clone #9
# B5: #30 (scFv)
# scFv: SYVLTQPPSVSVAPGQTARMTCEGSNLGSKSVHWYQQKPGQAPVLVVHDDSDRPSGIPDRFSGSKSGNTATLTISRVEAGDEADYYCQVWHSSSDHYVFGTATKVTVLGSRGGGGSGGGGSGGGGSLEMAQVQLVQSGAEVKKPGASVKVSCKASGYTFTNYYIHWVRQAPGQGLEWMGIIRPSGGITNYAQKFQGRVSMTRDTSTSTVYMELSSLRSEDTAVYYCARSWHENSGVDSWGQGTLVTVSSTSGQAGQHHHHHHGAYPYDVPDYAS
# notes: also called EXT017-30; EXT017-30 scFv phage clone
# B6: (FoxP2)_#15 (scFv)
# scFv (VL-linker-VH-His/HA tag): SYVLTQPPSVSVAPGETASITCGANNIGSESVHWYQQKSGQAPVLVIYYDSDRPSGIPERFSGSNSDNTATLTISRVEAGDEADYYCQVWDHINDHYVFGSGTKVTVLGSRGGGGSGGGGSGGGGSLEMAEVQLVESGGGLAQPGGSLRLSCAASGFSFSNYAMSWVRQAPGTGLEWVAGISGRGGSIHYADSVKGRFTISRDNSQSTVFLQMNNLGAEDTAIYYCAKSSEDYYFYHMDAWGIGTTVTVSSTSGQAGQHHHHHHGAYPYDVPDYAS
# notes: also called EXT019-15 scFv phage clone
# B7: (FoxP2)_#12 (scFv)
# scFv (VL-linker-VH-His/HA tag): SYELTQPPSVSVAPGKTARITCGGNNIGSKSVHWYQQKPGQAPVLVIYYDSDRPSGIPERFSGSNSGNTATLTISRVEAGDEADYYCQVWDSSSDHRVFGGGTKVTVLGSRGGGGSGGGGSGGGGSLEMAEVQLVESGGGLVQPGGSLRLSCAASGFTFSSYWMNWVRQAPGKGLEWVANIKQDGSEKNYVDSVKGRFTISRDNAKNSLYLQMNSLRGEDTAVYYCARYGGGPYDSWGQGTLVTVSSTSGQAGQHHHHHHGAYPYDVPDYAS
# notes: also called EXT019-12 scFv phage clone
# B8: (FoxP2)_#13 (scFv)
# scFv (VL-linker-VH-His/HA tag): LPVLTQPPSVSVAPGKTARITCGGNNIGSKSVHWYQQKPGQAPVLVIYYDSDRPSGIPERFSGSNSGNTATLTISRVEAGDEADYYCQVWDSSSAYVFGTGTKVTVLGSRGGGGSGGGGSGGGGSLEMAQVQLQQSGPGLVKPSQTLSLTCAISGDSVSSNSAAWNWIRQSPSRGLEWLGRTYYRSKWYNDYAVSVKSRITINPDTSKNQFSLQLNSVTPEDTAVYYCARYYSTSLDSWGQGTLVTVSSTSGQAGQHHHHHHGAYPYDVPDYAS
# notes: also called EXT019-13 scFv phage clone
# B9: (FoxP2)_#4 (scFv)
# scFv (VL-linker-VH-His/HA tag): QPVLTQPPSVSVAPGKTARITCGGNNIGSKSVHWYQQKPGQAPVLVIYYDSDRPSGIPERFSGSNSGNTATLTISRVEAGDEADYYCQVWDSSSDHPVFGGGTKLTVLGSRGGGGSGGGGSGGGGSLEMAQVQLVQSGAEVKKPGSSVKVSCKASGGTFSSYAISWVRQAPGQGLEWMGGIIPIFGTANYAQKFQGRVTITADESTSTAYMELSSLRSEDTAVYYCARSSYWWTSDRWGQGTLVTVSSTSGQAGQHHHHHHGAYPYDVPDYAS
# notes: also called EXT019-4; EXT019-04 scFv phage clone
# B10: EXT017-11 scFv phage clone (scFv)
# scFv: NFMLTQPHSVSESPGKTVTISCTRSSGSIASNYVQWYQQRPGSAPTTVIYEDNQRPSGVPDRFSGSIDSSSNSASLTISGLKTEDEADYYCQSYDTNNYGVIFGGGTKLTVLGSRGGGGSGGGGSGGGGSLEMAQMQLVQSGAEVKKPGASVKVSCKTSGYTFNNYYMHWVRQAPGQGLEWMGIINPSGGSTNYAQKFQGRVTMTRDTSTSTVYMELSSLRSEDTAVYYCARSFDKQDIDYWGQGTLVTVSSTSGQAGQHHHHHHGAYPYDVPDYAS
# notes: also called phage clone #11
# B11: EXT017-26 scFv phage clone (scFv)
# scFv: SYVLTQPPSVSVAPGQTARITCGGTDIRRKTVHWYQQKPGLAPVLVLYDDSDRPSGIPERFSGSNSGNTATLTISRVEGGDEADYYCQVWDNDNDHYVFGPGTKVTVLGSRGGGGSGGGGSGGGGSLEMAEVQLVQSGAEVKKPGASVKVSCKASGYTFTNYYIHWVRQTPGEGLEWMGIIRPSGGNTNYAQKFQGRVTMTRDTSTRTVYMELSSLRSEDTAVYYCARSWDTFSDEWGQGTLVTVSSTSGQAGQHHHHHHGAYPYDVPDYAS
# notes: also called phage clone #26
# B12: (FoxP2)_#8 (scFv)
# scFv (VL-linker-VH-His/HA tag): QSVLTQPPSVSEAPRQRVTISCSGSSSNIGNNAVNWYQQLPGKAPKLLIYYDDLLPSGVSDRFSGSKSGTSASLAISGLQSEDEADYYCAAWDDSLNGPVFGTGTKVTVLGSRGGGGSGGGGSGGGGSLEMAEVQLVQSGAEVKKPGASVKVSCKASGYNFTSYGISWVRQAPGQGLEWMGWISAYNGNTNYAQKLQGRVTMTTDTSTSTAYMELRSLRSDDTAVYYCARDWDYDFLTGWDGMDVWGQGTTVTVSSTSGQAGQHHHHHHGAYPYDVPDYAS
# notes: also called EXT019-8; EXT019-08 scFv phage clone
# Columns and labels:
# [1] = target: T1, HLA-A*02:01 on T2 cells alone (no peptide added) (human); assay: flow cytometry, phage on T2 without peptide; secondary only 118, unstained 95.2
# T1 construct: TAP-deficient T2 cells without pulsed peptide; negative control target, and the HLA molecule whose stabilisation by peptides is read in the T2 stabilization assay; also called HLA-A*02 molecule; HLA-A2 molecule
# [2] = target: T2, R3 (RHAMM-R3) peptide/HLA-A*02:01 complex on T2 cells (human); assay: flow cytometry, phage on T2 + R3 peptide; secondary only 126, unstained 94.4
# T2 construct: Control target of the phage staining of T2 cells; also called T2 cells pulsed with R3 peptide; RHAMM 3 (R3)
# [3] = target: T1, HLA-A*02:01 on T2 cells alone (no …); assay: flow cytometry, phage on T2 without peptide
# [4] = target: T1, HLA-A*02:01 on T2 cells alone (no …); assay: flow cytometry, phage on T2 without peptide; secondary only 100, unstained 99.5
# [5] = target: T1, HLA-A*02:01 on T2 cells alone (no …); assay: flow cytometry, phage on T2 cells
# [6] = target: T2, R3 (RHAMM-R3) peptide/HLA-A*02:01 …; assay: flow cytometry, phage on T2 + R3 peptide; secondary only 123, unstained 99.8
# [7] = target: T3, Foxp3-7 peptide/HLA-A*02:01 complex on the cell surface (human); assay: flow cytometry, phage on T2 + Foxp3-7 peptide; secondary only 133, unstained 103
# T3 construct: also called Foxp3-7/HLA-A2 complex
# [8] = target: T1, HLA-A*02:01 on T2 cells alone (no …); assay: flow cytometry, phage on T2 without peptide; secondary only 121, unstained 106
# [9] = target: T3, Foxp3-7 peptide/HLA-A*02:01 complex on …; assay: flow cytometry, phage on T2 + Foxp3-7 peptide; secondary only 116, unstained 93.8
# T2+EW [10] = target: T4, T2+EW (Homo sapiens, UniProt A*02:01); assay: flow cytometry, phage on T2 + EW peptide; secondary only 113, unstained 94.7
# T4 construct: on the surface of T2 cells; irrelevant control peptide; also called EW peptide/HLA-A*02:01 complex on T2 cells; T2 pulsed with EW peptide
# T2+EW [11] = target: T4, T2+EW; assay: flow cytometry, phage on T2 + EW peptide; secondary only 310, unstained 93
# [12] = target: T3, Foxp3-7 peptide/HLA-A*02:01 complex on …; assay: flow cytometry, phage on T2 + Foxp3-7 peptide; secondary only 318, unstained 95.8
# [13] = target: T1, HLA-A*02:01 on T2 cells alone (no …); assay: flow cytometry, phage on T2 without peptide; secondary only 320, unstained 91.4
# [14] = target: T3, Foxp3-7 peptide/HLA-A*02:01 complex on …; assay: flow cytometry, phage on T2 + Foxp3-7 peptide; secondary only 104, unstained 81.7
# [15] = target: T2, R3 (RHAMM-R3) peptide/HLA-A*02:01 …; assay: flow cytometry, phage on T2 + R3 peptide (as the table names the samples); secondary only 109, unstained 80.9
binder,measurement,setting,value
B1,Median:FITC-A,[1],146
same,Median:FITC-A,[2],157
same,binding result,[3],no binding
B2,Median:FITC-A,[1],140
same,Median:FITC-A,[2],148
same,binding result,[3],no binding
B3,Median:FITC-A,[1],149
same,Median:FITC-A,[2],148
same,binding result,[3],no binding
B4,Median:FITC-A,[4],149
same,binding result,[5],no binding
same,Median:FITC-A,[6],144
same,Median:FITC-A,[7],1730
same,Median:FITC-A,[8],150
same,Median:FITC-A,[9],287
same,Median:FITC-A,T2+EW [10],151
B5,Median:FITC-A,T2+EW [11],378
same,Median:FITC-A,[12],1130
same,Median:FITC-A,[13],354
B6,Median:FITC-A,[1],145
same,Median:FITC-A,[2],145
same,binding result,[3],no binding
B7,Median:FITC-A,[1],151
same,Median:FITC-A,[2],151
same,binding result,[3],no binding
B8,Median:FITC-A,[1],143
same,Median:FITC-A,[2],141
same,binding result,[3],no binding
B9,Median:FITC-A,[1],147
same,Median:FITC-A,[2],145
same,binding result,[3],no binding
B10,Median:FITC-A,[4],142
same,Median:FITC-A,[14],2620
same,binding result,[5],no binding
same,Median:FITC-A,[6],144
same,Median:FITC-A,[7],1690
same,Median:FITC-A,[8],143
same,Median:FITC-A,[9],454
same,Median:FITC-A,[15],119
same,Median:FITC-A,T2+EW [10],143
B11,Median:FITC-A,T2+EW [11],375
same,binding result,[5],no binding
same,Median:FITC-A,[6],144
same,Median:FITC-A,[8],146
same,Median:FITC-A,[12],1880
same,Median:FITC-A,[13],385
same,Median:FITC-A,[9],410
B12,Median:FITC-A,[1],141
same,Median:FITC-A,[2],142
same,binding result,[3],no binding
